Reference: paper doi:10.1101/2024.07.01.601608 (bioRxiv, 2024)

B6: MED14 (endogenous) (natural protein)
chain: not shown

Columns and labels:
MED14 (endogenous) = target: B6; experiment: cryo-EM structure
MED12L (endogenous) = MED12L (endogenous) (human (endogenous in 293-F), UniProt Q86YW9 1-2145); experiment: cross-linking
MED13 (endogenous) [1] = target: T1, MED13 (endogenous) (human (endogenous in 293-F), UniProt Q9UHV7 1-2174); experiment: cross-linking
MED12 (endogenous) = MED12 (endogenous) (human (endogenous in 293-F), UniProt Q93074 1-2177); experiment: cross-linking
MED12 (endogenous), sequence (Q93074 whole entry): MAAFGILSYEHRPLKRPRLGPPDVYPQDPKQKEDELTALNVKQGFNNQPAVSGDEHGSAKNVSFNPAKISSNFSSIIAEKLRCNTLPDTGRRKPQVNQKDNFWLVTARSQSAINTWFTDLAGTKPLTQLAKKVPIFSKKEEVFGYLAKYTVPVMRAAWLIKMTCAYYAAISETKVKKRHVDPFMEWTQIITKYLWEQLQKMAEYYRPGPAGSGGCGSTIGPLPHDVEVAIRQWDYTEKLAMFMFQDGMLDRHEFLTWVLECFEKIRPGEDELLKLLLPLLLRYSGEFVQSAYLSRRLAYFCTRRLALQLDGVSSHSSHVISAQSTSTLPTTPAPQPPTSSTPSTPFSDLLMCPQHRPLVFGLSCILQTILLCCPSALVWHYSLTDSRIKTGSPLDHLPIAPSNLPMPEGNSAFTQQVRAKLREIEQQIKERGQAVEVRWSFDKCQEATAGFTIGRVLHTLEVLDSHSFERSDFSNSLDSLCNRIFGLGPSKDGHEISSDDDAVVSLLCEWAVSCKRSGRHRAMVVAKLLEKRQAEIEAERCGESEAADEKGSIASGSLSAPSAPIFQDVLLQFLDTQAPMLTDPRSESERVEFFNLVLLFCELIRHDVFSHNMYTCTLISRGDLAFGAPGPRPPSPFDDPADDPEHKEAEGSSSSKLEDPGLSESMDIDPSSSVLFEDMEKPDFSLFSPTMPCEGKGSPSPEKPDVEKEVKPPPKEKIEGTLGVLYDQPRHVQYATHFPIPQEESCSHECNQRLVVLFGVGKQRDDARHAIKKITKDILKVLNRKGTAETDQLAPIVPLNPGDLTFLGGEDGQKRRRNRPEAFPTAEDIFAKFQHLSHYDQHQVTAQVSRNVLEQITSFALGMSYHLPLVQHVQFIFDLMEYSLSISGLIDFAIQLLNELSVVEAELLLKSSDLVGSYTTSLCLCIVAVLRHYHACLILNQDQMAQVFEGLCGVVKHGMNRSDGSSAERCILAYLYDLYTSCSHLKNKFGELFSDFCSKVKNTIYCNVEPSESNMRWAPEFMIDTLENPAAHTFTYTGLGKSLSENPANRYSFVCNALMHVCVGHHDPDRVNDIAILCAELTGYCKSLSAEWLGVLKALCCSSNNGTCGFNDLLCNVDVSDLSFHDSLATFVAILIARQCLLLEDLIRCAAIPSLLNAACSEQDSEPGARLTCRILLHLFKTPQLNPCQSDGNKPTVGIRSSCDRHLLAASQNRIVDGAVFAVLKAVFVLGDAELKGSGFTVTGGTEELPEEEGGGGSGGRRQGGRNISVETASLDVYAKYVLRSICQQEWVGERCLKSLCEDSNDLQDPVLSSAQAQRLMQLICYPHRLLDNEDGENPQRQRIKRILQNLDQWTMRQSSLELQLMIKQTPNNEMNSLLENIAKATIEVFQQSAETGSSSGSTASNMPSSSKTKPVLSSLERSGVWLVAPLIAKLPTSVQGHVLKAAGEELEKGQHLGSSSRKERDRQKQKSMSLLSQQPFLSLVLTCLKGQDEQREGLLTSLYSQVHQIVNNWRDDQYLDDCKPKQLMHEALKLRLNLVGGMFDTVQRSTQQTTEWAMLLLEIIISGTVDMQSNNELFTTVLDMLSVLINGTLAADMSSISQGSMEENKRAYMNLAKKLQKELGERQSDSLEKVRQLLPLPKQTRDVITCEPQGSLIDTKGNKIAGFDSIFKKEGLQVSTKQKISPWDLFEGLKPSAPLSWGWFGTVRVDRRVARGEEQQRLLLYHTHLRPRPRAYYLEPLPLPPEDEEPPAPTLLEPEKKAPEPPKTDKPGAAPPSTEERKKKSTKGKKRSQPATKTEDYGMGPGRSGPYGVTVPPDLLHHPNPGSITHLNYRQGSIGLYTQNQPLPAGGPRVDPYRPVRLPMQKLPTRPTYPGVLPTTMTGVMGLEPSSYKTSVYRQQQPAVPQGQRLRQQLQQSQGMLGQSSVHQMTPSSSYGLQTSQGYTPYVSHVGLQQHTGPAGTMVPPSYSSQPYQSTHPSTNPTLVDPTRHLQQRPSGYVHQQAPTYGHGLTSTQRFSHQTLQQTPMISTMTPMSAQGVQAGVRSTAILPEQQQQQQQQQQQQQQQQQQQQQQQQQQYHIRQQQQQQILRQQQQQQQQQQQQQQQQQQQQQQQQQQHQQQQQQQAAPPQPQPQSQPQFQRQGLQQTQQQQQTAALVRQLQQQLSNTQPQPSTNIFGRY

MED13 (endogenous) [2] = target: T1, MED13 (endogenous); experiment: cryo-EM structure
MED13L (endogenous) = MED13L (endogenous) (human (endogenous in 293-F), UniProt Q71F56 1-2210); experiment: cross-linking
MED13L (endogenous), sequence (Q71F56 whole entry): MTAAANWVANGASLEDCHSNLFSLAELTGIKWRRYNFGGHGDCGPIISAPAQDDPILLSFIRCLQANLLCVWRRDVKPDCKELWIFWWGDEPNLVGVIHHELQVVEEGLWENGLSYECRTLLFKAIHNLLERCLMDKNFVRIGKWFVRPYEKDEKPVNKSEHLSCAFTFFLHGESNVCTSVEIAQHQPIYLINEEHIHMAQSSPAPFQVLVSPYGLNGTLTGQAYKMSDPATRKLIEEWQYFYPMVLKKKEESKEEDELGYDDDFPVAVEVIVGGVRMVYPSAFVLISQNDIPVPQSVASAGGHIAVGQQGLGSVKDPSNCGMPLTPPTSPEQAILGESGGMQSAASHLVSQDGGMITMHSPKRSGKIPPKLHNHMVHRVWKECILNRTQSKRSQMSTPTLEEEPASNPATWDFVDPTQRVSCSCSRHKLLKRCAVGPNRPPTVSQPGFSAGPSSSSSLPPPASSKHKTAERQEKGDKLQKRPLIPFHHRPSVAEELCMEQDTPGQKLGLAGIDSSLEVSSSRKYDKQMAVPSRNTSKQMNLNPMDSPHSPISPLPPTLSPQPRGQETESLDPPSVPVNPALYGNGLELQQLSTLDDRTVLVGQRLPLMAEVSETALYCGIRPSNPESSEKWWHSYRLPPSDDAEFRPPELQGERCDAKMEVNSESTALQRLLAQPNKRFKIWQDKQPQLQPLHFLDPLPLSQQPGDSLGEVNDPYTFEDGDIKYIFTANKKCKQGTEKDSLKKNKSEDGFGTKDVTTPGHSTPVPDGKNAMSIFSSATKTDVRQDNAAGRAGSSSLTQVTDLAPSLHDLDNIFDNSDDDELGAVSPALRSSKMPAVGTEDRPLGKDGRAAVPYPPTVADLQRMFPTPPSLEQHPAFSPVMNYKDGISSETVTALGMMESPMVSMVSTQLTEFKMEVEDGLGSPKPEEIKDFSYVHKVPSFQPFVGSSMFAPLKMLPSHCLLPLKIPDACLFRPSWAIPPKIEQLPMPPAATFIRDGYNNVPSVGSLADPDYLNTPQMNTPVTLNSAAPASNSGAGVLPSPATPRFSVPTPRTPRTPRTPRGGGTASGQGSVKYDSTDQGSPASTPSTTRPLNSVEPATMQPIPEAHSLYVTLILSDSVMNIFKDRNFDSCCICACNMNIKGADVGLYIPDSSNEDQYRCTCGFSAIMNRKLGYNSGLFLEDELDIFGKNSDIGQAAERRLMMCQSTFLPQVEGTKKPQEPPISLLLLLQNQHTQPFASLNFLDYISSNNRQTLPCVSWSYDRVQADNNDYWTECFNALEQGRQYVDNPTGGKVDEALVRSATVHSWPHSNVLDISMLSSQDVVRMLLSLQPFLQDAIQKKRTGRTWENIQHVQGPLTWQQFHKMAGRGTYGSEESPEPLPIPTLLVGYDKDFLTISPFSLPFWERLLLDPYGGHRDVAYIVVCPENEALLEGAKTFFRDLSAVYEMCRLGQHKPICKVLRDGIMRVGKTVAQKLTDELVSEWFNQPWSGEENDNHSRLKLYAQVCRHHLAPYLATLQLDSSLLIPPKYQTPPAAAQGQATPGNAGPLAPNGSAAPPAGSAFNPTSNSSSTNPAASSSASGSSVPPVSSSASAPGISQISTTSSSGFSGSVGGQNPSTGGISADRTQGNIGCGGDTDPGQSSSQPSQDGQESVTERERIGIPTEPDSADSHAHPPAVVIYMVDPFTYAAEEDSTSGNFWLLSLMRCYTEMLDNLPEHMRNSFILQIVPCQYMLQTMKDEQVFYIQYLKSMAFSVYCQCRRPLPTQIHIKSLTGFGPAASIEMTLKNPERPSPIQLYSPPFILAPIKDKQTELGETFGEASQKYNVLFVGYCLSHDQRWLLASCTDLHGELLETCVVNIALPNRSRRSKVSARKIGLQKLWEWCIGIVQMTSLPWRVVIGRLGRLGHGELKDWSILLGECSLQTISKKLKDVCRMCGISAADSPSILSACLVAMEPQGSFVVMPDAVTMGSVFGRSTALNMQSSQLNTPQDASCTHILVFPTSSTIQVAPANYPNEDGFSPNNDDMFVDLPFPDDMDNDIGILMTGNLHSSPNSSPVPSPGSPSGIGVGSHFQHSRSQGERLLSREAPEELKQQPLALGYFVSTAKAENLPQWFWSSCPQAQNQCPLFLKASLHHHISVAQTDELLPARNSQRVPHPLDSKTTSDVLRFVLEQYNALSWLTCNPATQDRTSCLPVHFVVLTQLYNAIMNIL

[3] = target: recombinant human MED12-HA (baculovirus) (human, UniProt Q93074 1-2177); experiment: cryo-EM structure
recombinant human MED12-HA (baculovirus), sequence (Q93074 whole entry): as the sequence (Q93074 whole entry) above

[4] = target: recombinant human CDK8-Flag (baculovirus) (human, UniProt P49336 1-464); experiment: cryo-EM structure
recombinant human CDK8-Flag (baculovirus), sequence (P49336 whole entry): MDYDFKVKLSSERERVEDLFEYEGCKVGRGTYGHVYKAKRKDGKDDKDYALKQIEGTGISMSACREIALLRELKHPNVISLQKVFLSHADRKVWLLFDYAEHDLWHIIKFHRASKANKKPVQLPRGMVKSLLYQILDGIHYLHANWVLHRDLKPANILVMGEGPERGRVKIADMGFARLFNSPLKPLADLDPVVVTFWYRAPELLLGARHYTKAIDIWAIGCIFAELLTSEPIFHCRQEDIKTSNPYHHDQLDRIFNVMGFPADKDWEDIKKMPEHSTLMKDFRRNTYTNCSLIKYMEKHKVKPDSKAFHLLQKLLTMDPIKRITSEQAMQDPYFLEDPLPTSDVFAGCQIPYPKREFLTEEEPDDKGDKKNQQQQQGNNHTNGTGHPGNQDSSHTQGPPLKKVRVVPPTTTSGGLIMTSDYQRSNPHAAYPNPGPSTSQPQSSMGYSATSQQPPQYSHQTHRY

B1: MED10 (endogenous) (natural protein)
chain: MAEKFDHLEEHLEKFVENIRQLGIIVSDFQPSSQAGLNQKLNFIVTGLQDIDKCRQQLHDITVPLEVFEYIDQGRNPQLYTKECLERALAKNEQVKGKIDTMKKFKSLLIQELSKVFPEDMAKYRSIRGEDHPPS
B1: binds (MED14 (endogenous)); binds (MED12L (endogenous)); binds (MED13 (endogenous) [1]). B1: binds (MED12 (endogenous)).

B2: MED19 (endogenous) (natural protein)
chain: MENFTALFGAQADPPPPPTALGFGPGKPPPPPPPPAGGGPGTAPPPTAATAPPGADKSGAGCGPFYLMRELPGSTELTGSTNLITHYNLEQAYNKFCGKKVKEKLSNFLPDLPGMIDLPGSHDNSSLRSLIEKPPILSSSFNPITGTMLAGFRLHTGPLPEQCRLMHIQPPKKKNKHKHKQSRTQDPVPPETPSDSDHKKKKKKKEEDPDRKRKKKEKKKKKNRHSPDHPGMGSSQASSSSSLR
B2: binds (MED14 (endogenous)); binds (MED13 (endogenous) [2]); binds (MED12 (endogenous)).

B3: MED18 (endogenous) (natural protein)
chain: MEAPPVTMMPVTGGTINMMEYLLQGSVLDHSLESLIHRLRGLCDNMEPETFLDHEMVFLLKGQQASPFVLRARRSMDRAGAPWHLRYLGQPEMGDKNRHALVRNCVDIATSENLTDFLMEMGFRMDHEFVAKGHLFRKGIMKIMVYKIFRILVPGNTDSTEALSLSYLVELSVVAPAGQDMVSDDMKNFAEQLKPLVHLEKIDPKRLM
B3: binds (MED13L (endogenous)).

B4: MED22 (endogenous) (natural protein)
chain: MAQQRALPQSKETLLQSYNKRLKDDIKSIMDNFTEIIKTAKIEDETQVSRATQGEQDNYEMHVRAANIVRAGESLMKLVSDLKQFLILNDFPSVNEAIDQRNQQLRTLQEECDRKLITLRDEISIDLYELEEEYYSSSSSLCEANDLPLCEAYGRLDLDTDSADGLSAPLLASPEPSAGPLQVAAPAHSHAGGPGPTEHA
B4: binds (MED13L (endogenous)).

B5: MED6 (endogenous) (natural protein)
chain: MAAVDIRDNLLGISWVDSSWIPILNSGSVLDYFSERSNPFYDRTCNNEVVKMQRLTLEHLNQMVGIEYILLHAQEPILFIIRKQQRQSPAQVIPLADYYIIAGVIYQAPDLGSVINSRVLTAVHGIQSAFDEAMSYCRYHPSKGYWWHFKDHEEQDKVRPKAKRKEEPSSIFQRQRVDALLLDLRQKFPPKFVQLKPGEKPVPVDQTKKEAEPIPETVKPEEKETTKNVQQTVSAKGPPEKRMRLQ
B5: binds (MED13L (endogenous)); binds (MED13 (endogenous) [1]).

B6: binds (MED13L (endogenous)).

B7: MED17 (endogenous) (natural protein)
chain: MSGVRAVRISIESACEKQVHEVGLDGTETYLPPLSMSQNLARLAQRIDFSQGSGSEEEEAAGTEGDAQEWPGAGSSADQDDEEGVVKFQPSLWPWDSVRNNLRSALTEMCVLYDVLSIVRDKKFMTLDPVSQDALPPKQNPQTLQLISKKKSLAGAAQILLKGAERLTKSVTENQENKLQRDFNSELLRLRQHWKLRKVGDKILGDLSYRSAGSLFPHHGTFEVIKNTDLDLDKKIPEDYCPLDVQIPSDLEGSAYIKVSIQKQAPDIGDLGTVNLFKRPLPKSKPGSPHWQTKLEAAQNVLLCKEIFAQLSREAVQIKSQVPHIVVKNQIISQPFPSLQLSISLCHSSNDKKSQKFATEKQCPEDHLYVLEHNLHLLIREFHKQTLSSIMMPHPASAPFGHKRMRLSGPQAFDKNEINSLQSSEGLLEKIIKQAKHIFLRSRAAATIDSLASRIEDPQIQAHWSNINDVYESSVKVLITSQGYEQICKSIQLQLNIGVEQIRVVHRDGRVITLSYQEQELQDFLLSQMSQHQVHAVQQLAKVMGWQVLSFSNHVGLGPIESIGNASAITVASPSGDYAISVRNGPESGSKIMVQFPRNQCKDLPKSDVLQDNKWSHLRGPFKEVQWNKMEGRNFVYKMELLMSALSPCLL
B7: binds (MED13L (endogenous)).

B8: recombinant human CCNC-6xHis (baculovirus) (natural protein)
chain: MAGNFWQSSHYLQWILDKQDLLKERQKDLKFLSEEEYWKLQIFFTNVIQALGEHLKLRQQVIATATVYFKRFYARYSLKSIDPVLMAPTCVFLASKVEEFGVVSNTRLIAAATSVLKTRFSYAFPKEFPYRMNHILECEFYLLELMDCCLIVYHPYRPLLQYVQDMGQEDMLLPLAWRIVNDTYRTDLCLLYPPFMIALACLHVACVVQQKDARQWFAELSVDMEKILEIIRVILKLYEQWKNFDERKEMATILSKMPKPKPPPNSEGEQGPNGSQNSSYSQS
B8: binds [3]; binds [4].

B9: CCNC (endogenous) (natural protein)
chain: MAGNFWQSSHYLQWILDKQDLLKERQKDLKFLSEEEYWKLQIFFTNVIQALGEHLKLRQQVIATATVYFKRFYARYSLKSIDPVLMAPTCVFLASKVEEFGVVSNTRLIAAATSVLKTRFSYAFPKEFPYRMNHILECEFYLLELMDCCLIVYHPYRPLLQYVQDMGQEDMLLPLAWRIVNDTYRTDLCLLYPPFMIALACLHVACVVQQKDARQWFAELSVDMEKILEIIRVILKLYEQWKNFDERKEMATILSKMPKPKPPPNSEGEQGPNGSQNSSYSQS
B9: binds (MED12 (endogenous)).

B10: MED31 (endogenous) (natural protein)
chain: MAAAVAMETDDAGNRLRFQLELEFVQCLANPNYLNFLAQRGYFKDKAFVNYLKYLLYWKDPEYAKYLKYPQCLHMLELLQYEHFRKELVNAQCAKFIDEQQILHWQHYSRKRMRLQQALAEQQQQNNTSGK
B10: binds (MED13 (endogenous) [1]).
